From patent US20230313187A1, “MODIFICATIONS OF MAMMALIAN CELLS USING ARTIFICIAL MICRO-RNA TO ALTER THEIR PROPERTIES AND THE COMPOSITIONS OF THEIR PRODUCTS” (DNA TWOPOINTO INC., priority 2020, published 2023)

B1: SEQ ID NO: 568: three-hairpin amiRNA, guides SEQ ID NOs 92, 91, 90 complementary to Cricetulus griseus Neu2 mRNA (nucleic acid)
chain: ATCTGATCTTCTGAAGAAAATATATTTCTTTTTATTCATAGCTCTTAACTAGTGGTGATAGCAATGTCAGCAGTGCCTATGAAGTCTATGAAGAGTCAGGGTGAAGCCACAGATGCCTGACTCTTAATAGACTTCACAAGTAAGGTTGACCATACTCTACTCTAGAGTTGTGTTTTAATGTATATTAATGTTACTAATGTGTTTACTAGTGGTGATAGCAATGTCAGCAGTGCCTTACAAGTTTACTCACTACCTGGGTGAAGCCACAGATGCCAGGTAGTGCGTAAACTTGTCAAGTAAGGTTGACCATACTCTACTCTAGGTTATTTTTAGTATGATTCTGTAAAAATGAATTAATACTAACTAGTGGTGATAGCAATGTCAGCAGTGCCTTAATTTATTAAGACTCATCCAAGTGAAGCCACAGATGTTGGATGAGTATTAATAAATTCAAGTAAGGTTGACCATACTCTACTCTAGTCAGTTTTATTGATAGTCTTTTCAGTATTATTGATAATCTT
B2: SEQ ID NO: 194: three-hairpin amiRNA, guides SEQ ID NOs 23, 24, 25 to Cricetulus griseus FUT8 mRNA, unstructured sequences between hairpins (nucleic acid)
chain: ATCTGATCTTCTGAAGAAAATATATTTCTTTTTATTCATAGCTCTTAACTAGTGGTGATAGCAATGTCAGCAGTGCCTGGAAAAACATCCATTCTCATTCGTGAAGCCACAGATGGAATGAGAATAGATGTTTTTCAAAGTAAGGTTGACCATACTCTACTCTAGTTATATTCTTTAGGCACGAATGTGTGTTTAAAAAAAATAAAAACTAGTGGTGATAGCAATGTCAGCAGTGCCTTTAAATTACATAATGTGGCAGTGTGAAGCCACAGATGACTGCCACATCATGTAATTTACAAGTAAGGTTGACCATACTCTACTCTAGAGTTGTGTTTTAATGTATATTAATGTTACTAATGTGTTTACTAGTGGTGATAGCAATGTCAGCAGTGCCTTATTTTACTGTGCATGGGCTTGGTGAAGCCACAGATGCAAGCCCATGAACAGTAAAATCAAGTAAGGTTGACCATACTCTACTCTAGTCAGTTTTATTGATAGTCTTTTCAGTATTATTGATAATCTT

How the values were obtained:
Type in all cases: cell-based
[1] = test system: Cricetulus griseus Neu2 mRNA; experiment: Sialylation of an Fc fusion protein from CHO cells with Neu2-targeting amiRNA (capillary isoelectric focusing); settings: 14 day fed-batch; Fc fusion to a growth factor receptor; FIG. 6B vs reference standard
From the text: The multi-hairpin amiRNA was cloned into a piggyBac-like transposon to the 3′ of a spacer polynucleotide with nucleotide sequence SEQ ID NO: 280, and operably linked to a PGK promoter with nucleotide sequence SEQ ID NO: 385. The nucleotide sequence of the multi-hairpin amiRNA gene is given as SEQ ID NO: 593. The piggyBac-like transposon further comprised a selectable marker conferring resistance to puromycin with amino acid sequence SEQ ID NO: 302. The piggyBac-like transposon further comprised a target sequence 5′-TTAA-3′ immediately followed by an ITR with nucleotide sequence SEQ ID NO: 427, immediately followed by further transposon end sequences with nucleotide sequence SEQ ID NO: 425. The piggyBac-like transposon further comprised nucleotide sequence SEQ ID NO: 426, immediately followed by a second ITR with nucleotide sequence SEQ ID NO: 428, immediately followed by the target sequence 5′-TTAA-3′. […]
After the transfected cell pools had recovered to >95% viability, we tested their ability to produce sialylated protein. […] Protein was purified from the culture supernatant using protein A affinity chromatography, reduced with dithiothreitol, and analyzed by capillary isoelectric focusing (cIEF). […]

[2] = test system: Cricetulus griseus alpha-(1,6)-fucosyl transferase (FUT8) mRNA; experiment: CHO pool with amiRNA as host for transient production of afucosylated antibodies; settings: 7-day transient culture; amiRNA linked to EF1 promoter; FIG. 5B
From the text: The multi-hairpin amiRNA with nucleotide sequence SEQ ID NO: 194 comprised three hairpins with guides complementary to the mRNA for Cricetulus griseus alpha-(1,6)-fucosyl transferase (FUT8), as described in Section 6.1.1.1. The multi-hairpin amiRNA sequence was placed to the 3′ of an open reading frame encoding a red fluorescent protein (with nucleotide sequence SEQ ID NO: 279) and followed by a rabbit globin polyadenylation sequence. The multi-hairpin amiRNA gene was cloned into a Bombyx transposon vector in which it was operably linked to an EF1 promoter (with nucleotide sequence SEQ ID NO: 314). […] It further comprised an open reading frame encoding puromycin selectable marker with polypeptide sequence SEQ ID NO: 302. […]
(§1) Transposons were co-transfected with mRNA encoding transposase with polypeptide sequence SEQ ID NO: 502 into a CHO cell line expressing no heterologous antibody sequences. […] Protein was purified from the culture supernatant using protein A affinity chromatography, reduced with dithiothreitol, and analyzed on an Agilent QTOF mass spectrometer. […]

[3] = test system: Cricetulus griseus alpha-(1,6)-fucosyl transferase (FUT8) mRNA; experiment: Antibody titer and fucosylation with different numbers of amiRNA hairpins in the 3' UTR of the glutamine synthetase selectable marker
From the text: One- two- or three-hairpin amiRNAs were incorporated into the 3′ UTR of a glutamine synthetase selectable marker on a transposon. The multi-hairpin amiRNA with nucleotide sequence SEQ ID NO: 194 comprised three hairpins as described in Section 6.1.1.1.
These amiRNA sequences were placed to the 3′ of an open reading frame encoding a glutamine synthetase protein (with polypeptide sequence SEQ ID NO: 307) and followed by a human globin polyadenylation sequence. The amiRNA genes were cloned into a transposon vector in which they were operably linked to a Pol II promoter. The transposon further comprised genes encoding an antibody with mature light chain polypeptide sequence SEQ ID NO: 286 and mature heavy chain polypeptide sequence SEQ ID NO: 288. The transposon further comprised a left end comprising a 5′-TTAA-3′ target sequence immediately followed by an ITR with nucleotide sequence SEQ ID NO: 423 (which is an embodiment of SEQ ID NO: 421) and additional nucleotide sequence SEQ ID NO: 417 and a right end comprising nucleotide sequence SEQ ID NO: 419 immediately followed by an ITR with nucleotide sequence SEQ ID NO: 424 (which is an embodiment of SEQ ID NO: 422) immediately followed by a 5′-TTAA-3′ target sequence. The transposon was configured so that the multi-hairpin amiRNA, the glutamine synthetase gene and the genes for both antibody chains, as well as all necessary operably linked control elements were transposable by a corresponding transposase.
Transposons were co-transfected with mRNA encoding transposase with polypeptide sequence SEQ ID NO: 472 into a CHO cell line with no functional glutamine synthetase gene. The pool of transfected cells were grown in the absence of glutamine added to the media until their viability reached 95%. They were then grown in a 14 day fed-batch using Sigma Advanced Fed Batch media. Protein was purified from the culture supernatant using protein A affinity chromatography, reduced with dithiothreitol, and analyzed on an Agilent QTOF mass spectrometer. We integrated the area under the peaks at 50,456 Da (corresponding to the heavy chain modified by G0: the conserved heptasaccharide core composed of 2 N-acetylglucosamine, 3 mannose and 2 other N-acetylglucosamine residues that are β-1,2 linked to α-6 mannose and α-3 mannose, forming two arms) and 50,602 (corresponding to the heavy chain modified by G0F: the conserved heptasaccharide core plus a fucose residue) to calculate the relative proportion of fucosylated and afucosylated antibody.
Table 5. Inhibition of antibody fucosylation with different numbers of amiRNA hairpins. Transposons were constructed as described in Section 6.1.2.1. The SEQ ID NO of the amiRNA gene including the glutamine synthetase ORF and the globin polyA sequence is given in column A. The Pol II promoter shown in column B was operably linked to the amiRNA whose SEQ ID NO is shown in column C. The amiRNA comprised the number of hairpins shown in column D. Following a 14-day fed batch antibody production run, the culture supernatant contained the concentration of antibody shown in column E. The percentage of antibody that was afucosylated is shown in column F, the percentage that was fucosylated is shown in column G. BDL=below detection limit.

[4] = test system: Cricetulus griseus alpha-(1,6)-fucosyl transferase (FUT8) mRNA; experiment: Antibody titer and fucosylation with multi-hairpin amiRNA in the GS 3' UTR driven by different promoters and inhibitory 5' UTRs; settings: 14 day fed-batch
From the text: The three-hairpin amiRNA with nucleotide sequence SEQ ID NO: 194 was incorporated into the 3′ UTR of a glutamine synthetase selectable marker on a transposon. The amiRNA sequence was placed to the 3′ of an open reading frame encoding a glutamine synthetase protein with polypeptide sequence SEQ ID NO: 307 and was followed by a human globin polyadenylation sequence. The amiRNA gene was cloned into different transposon vectors in which it was operably linked to different Pol II promoters. Each transposon further comprised genes encoding an antibody with mature light chain polypeptide sequence SEQ ID NO: 286 and mature heavy chain polypeptide sequence SEQ ID NO: 288. […]
as §1, with “472” for “502”, “with” for “expressing”, “functional glutamine synthetase gene.” for “heterologous antibody sequences.”

Row | Molecule | sialylation of the produced protein (cIEF glycoform peaks) [1] | antibody fucosylation (G0F peak) [2] | fucosylation of the antibody ([3]; CMV and EEF2 promoter operably linked to the amiRNA) | antibody titer in the culture supernatant ([3]; CMV promoter) [mg/L] | antibody titer in the culture supernatant ([3]; EEF2 promoter) [mg/L] | antibody titer ([3]; weaker (PGK) promoter operably linked to glutamine synthetase, amiRNA in 3' UTR) [mg/L] | antibody fucosylation ([3]; weaker (PGK) promoter, amiRNA in GS 3' UTR, natural level around 80-85%) | antibody fucosylation [4] | antibody titer [4]
1 | B1 | substantially reduces the removal of sialic acid from proteins produced by CHO cells | – | – | – | – | – | – | – | –
2 | B2 | – | produced only afucosylated antibodies | completely eliminated fucosylation of the antibody | 163 | 443 | 835 | completely prevented | completely suppressed | exceeded 3 g/L
